In this assay the test system is SCC152 cells. The assay is described as follows: Elimination of GFP-expressing SCC152 target cells over time (quantification and time lapse imaging). The settings on record: 96-well co-culture, CD8+/E7 TCR + CD4+/CER + SCC152 1:1:1, compared to control. Format: cell-based. The protocol: Target SCC152 cells were co-cultured with CD8+ T cells transduced with HPV E7 TCR+CD4+ T cells transduced with a selected CER, or controls (CD8+ T cell transduced with HPV E7 TCR+CD4+ transduced control) at a 1:1:1 ratio. The number of target cells were quantified using imaging software. 0 hours, 24 hours, and 48 hours are shown from left to right.
FIG. 21 is time lapse imaging from 96-well co-culture experiments comprising CD8+ T cells transduced with HPV16 E7 TCR+CD4+ T cells transduced with CER5, CER17 or CER19 incubated with SCC152 target cells at a 1:1:1 ratio. SCC152 HPV+ target cells were quantified using automated cell counting software.
FIG. 22 is time lapse imaging from 96-well co-culture experiments comprising CD8+ T cells transduced with HPV16 E7 TCR+CD4+ T cells transduced with CER21, CER23 or CER26 incubated with SCC152 target cells at a 1:1:1 ratio. SCC152 HPV+ target cells were quantified using automated cell counting software.
FIG. 23 is time lapse imaging from 96-well co-culture experiments comprising CD8+ T cells transduced with HPV16 E7 TCR+CD4+ T cells transduced with CER103b, CER104 or CER105 incubated with SCC152 target cells at a 1:1:1 ratio. SCC152 HPV+ target cells were quantified using automated cell counting software.
FIG. 24 is time lapse imaging from 96-well co-culture experiments comprising CD8+ T cells transduced with HPV16 E7 TCR+CD4+ T cells transduced with CER106, CER116 or CER27 incubated with SCC152 target cells at a 1:1:1 ratio. SCC152 HPV+ target cells were quantified using automated cell counting software.
FIG. 57 is a bar graph showing quantification of loss of SCC152 HPV16+ target cells over time during co-culture assays. SCC152 cells were transduced with green fluorescent protein (GFP) and co-cultured with CD8+ T cells transduced with HPV16 E7 TCR and CD4+ T cells transduced with a selected CER (CER29, CER30, CER110, CER112, CER113, CER114, CER116, or CER117) or a CD4+ T cell control at a 1:1:1 ratio (CD8:CD4:target cell). The number of target cells was quantified at various time points during co-culture (0 hrs, 12 hrs, 24 hrs, and 36 hrs) using fluorescence microscopy and imaging software.
FIG. 58 are fluorescence micrograph images of the co-culture assay described in FIG. 57, showing clearance of the SCC152 cells (pink) as co-culture with CD8+ T cells transduced with HPV16 E7 TCR and CD4+ T cells transduced with a selected CER (columns from left to right: control, CER29, CER30, CER110, or CER112) progresses (rows from top to bottom: 0 hrs, 12 hrs, 24 hrs, and 36 hrs).
FIG. 59 are fluorescence micrograph images of the co-culture assay described in FIG. 57, showing clearance of the SCC152 cells (pink) as co-culture with CD8+ T cells transduced with HPV16 E7 TCR and CD4+ T cells transduced with a selected CER (columns from left to right: control, CER113, CER114, CER116, or CER117) progresses (rows from top to bottom: 0 hrs, 12 hrs, 24 hrs, and 36 hrs).
Elimination of target SCC152 cells was also detected by quantifying green fluorescent protein expression by SCC152 cells over time (0 hr, 24 hr, 48 hr) during co-incubation with CD8+ T cells transduced with HPV16 E7 specific TCR+ CD4 T cells transduced with selected CER (see, FIG. 20).
Elimination of target SCC152 cells was also detected by quantifying green fluorescent protein expression by SCC152 cells over time (0 hr, 12 hr, 24 hr, 36 hr) during co-incubation with CD8+ T cells transduced with HPV16 E7 specific TCR+ CD4+ T cells transduced with selected CER (CER29, CER30, CER110, CER112, CER113, CER114, CER116, or CER117) (see, FIG. 57).

B1: CER26: Chimeric engulfment receptor: Tim4 binding, Tim4 transmembrane, TLR1 signaling; SEQ ID NO: 118 (protein)
chain: MSKGLLLLWLVTELWWLYLTPAASEDTIIGFLGQPVTLPCHYLSWSQSRNSMCWGKGSCPNSKCNAELLRTDGTRIISRKSTKYTLLGKVQFGEVSLTISNTNRGDSGVYCCRIEVPGWFNDVKKNVRLELRRATTTKKPTTTTRPTTTPYVTTTTPELLPTTVMTTSVLPTTTPPQTLATTAFSTAVTTCPSTTPGSFSQETTKGSAFTTESETLPASNHSQRSMMTISTDIAVLRPTGSNPGILPSTSQLTTQKTTLTTSESLQKTTKSHQINSRQTILIIACCVGFVLMVLLFLAFLSYLDLPWYLRMVCQWTQTRRRARNIPLEELQRNLQFHAFISYSGHDSFWVKNELLPNLEKEGMQICLHERNFVPGKSIVENIITCIEKSYKSIFVLSPNFVQSEWCHYELYFAHHNLFHEGSNSLILILLEPIPQYSIPSSYHKLKSLMARRTYLEWPKEKSKRGLFWANLRAAINIKLTEQAKK
modifications: CER26, amino acids 1-22 are signal peptide
For the molecule B1, the “number of SCC152 cells in time lapse imaging” value (from here on “number of SCC152 cells”) is reported as “decreasing in numbers over time”.

B2: CER23: Chimeric engulfment receptor: Tim4 binding, Tim4 transmembrane, TLR9 signaling; SEQ ID NO: 116 (protein)
chain: MSKGLLLLWLVTELWWLYLTPAASEDTIIGFLGQPVTLPCHYLSWSQSRNSMCWGKGSCPNSKCNAELLRTDGTRIISRKSTKYTLLGKVQFGEVSLTISNTNRGDSGVYCCRIEVPGWFNDVKKNVRLELRRATTTKKPTTTTRPTTTPYVTTTTPELLPTTVMTTSVLPTTTPPQTLATTAFSTAVTTCPSTTPGSFSQETTKGSAFTTESETLPASNHSQRSMMTISTDIAVLRPTGSNPGILPSTSQLTTQKTTLTTSESLQKTTKSHQINSRQTILIIACCVGFVLMVLLFLAFLGWDLWYCFHLCLAWLPWRGRQSGRDEDALPYDAFVVFDKTQSAVADWVYNELRGQLEECRGRWALRLCLEERDWLPGKTLFENLWASVYGSRKTLFVLAHTDRVSGLLRASFLLAQQRLLEDRKDVVVLVILSPDGRRSRYVRLRQRLCRQSVLLWPHQPSGQRSFWAQLGMALTRDNHHFYNRNFCQGPTAE
modifications: CER23, amino acids 1-22 are signal peptide
With B2, the “number of SCC152 cells” value is listed as “decreasing in numbers over time”.

B3: CER21: Chimeric engulfment receptor: Tim4 binding, Tim4 transmembrane, TLR8 signaling; SEQ ID NO: 96 (protein)
chain: MSKGLLLLWLVTELWWLYLTPAASEDTIIGFLGQPVTLPCHYLSWSQSRNSMCWGKGSCPNSKCNAELLRTDGTRIISRKSTKYTLLGKVQFGEVSLTISNTNRGDSGVYCCRIEVPGWFNDVKKNVRLELRRATTTKKPTTTTRPTTTPYVTTTTPELLPTTVMTTSVLPTTTPPQTLATTAFSTAVTTCPSTTPGSFSQETTKGSAFTTESETLPASNHSQRSMMTISTDIAVLRPTGSNPGILPSTSQLTTQKTTLTTSESLQKTTKSHQINSRQTILIIACCVGFVLMVLLFLAFLHHLFYWDVWFIYNVCLAKVKGYRSLSTSQTFYDAYISYDTKDASVTDWVINELRYHLEESRDKNVLLCLEERDWDPGLAIIDNLMQSINQSKKTVFVLTKKYAKSWNFKTAFYLALQRLMDENMDVIIFILLEPVLQHSQYLRLRQRICKSSILQWPDNPKAEGLFWQTLRNVVLTENDSRYNNMYVDSIKQY
modifications: CER21, amino acids 1-22 are signal peptide
In the case of B3, the “number of SCC152 cells” value was “decreasing in numbers over time”.

B4: CER103B: Chimeric engulfment receptor: Tim4 binding, Tim4 transmembrane, TLR8 and CD79b (185-213) signaling; SEQ ID NO: 138 (protein)
chain: MSKGLLLLWLVTELWWLYLTPAASEDTIIGFLGQPVTLPCHYLSWSQSRNSMCWGKGSCPNSKCNAELLRTDGTRIISRKSTKYTLLGKVQFGEVSLTISNTNRGDSGVYCCRIEVPGWFNDVKKNVRLELRRATTTKKPTTTTRPTTTPYVTTTTPELLPTTVMTTSVLPTTTPPQTLATTAFSTAVTTCPSTTPGSFSQETTKGSAFTTESETLPASNHSQRSMMTISTDIAVLRPTGSNPGILPSTSQLTTQKTTLTTSESLQKTTKSHQINSRQTILIIACCVGFVLMVLLFLAFLHHLFYWDVWFIYNVCLAKVKGYRSLSTSQTFYDAYISYDTKDASVTDWVINELRYHLEESRDKNVLLCLEERDWDPGLAIIDNLMQSINQSKKTVFVLTKKYAKSWNFKTAFYLALQRLMDENMDVIIFILLEPVLQHSQYLRLRQRICKSSILQWPDNPKAEGLFWQTLRNVVLTENDSRYNNMYVDSIKQYDSKAGMEEDHTYEGLDIDQTATYEDIVTL
modifications: CER103B, amino acids 1-22 are signal peptide
Consider B4, for which the “number of SCC152 cells” value was “decreasing in numbers over time”.

B5: CER105: Chimeric engulfment receptor: Tim4 binding, Tim4 transmembrane, TLR8 and Baff-R signaling; SEQ ID NO: 140 (protein)
chain: MSKGLLLLWLVTELWWLYLTPAASEDTIIGFLGQPVTLPCHYLSWSQSRNSMCWGKGSCPNSKCNAELLRTDGTRIISRKSTKYTLLGKVQFGEVSLTISNTNRGDSGVYCCRIEVPGWFNDVKKNVRLELRRATTTKKPTTTTRPTTTPYVTTTTPELLPTTVMTTSVLPTTTPPQTLATTAFSTAVTTCPSTTPGSFSQETTKGSAFTTESETLPASNHSQRSMMTISTDIAVLRPTGSNPGILPSTSQLTTQKTTLTTSESLQKTTKSHQINSRQTILIIACCVGFVLMVLLFLAFLHHLFYWDVWFIYNVCLAKVKGYRSLSTSQTFYDAYISYDTKDASVTDWVINELRYHLEESRDKNVLLCLEERDWDPGLAIIDNLMQSINQSKKTVFVLTKKYAKSWNFKTAFYLALQRLMDENMDVIIFILLEPVLQHSQYLRLRQRICKSSILQWPDNPKAEGLFWQTLRNVVLTENDSRYNNMYVDSIKQYSWRRRQRRLRGASSAEAPDGDKDAPEPLDKVIILSPGISDATAPAWPPPGEDPGTTPPGHSVPVPATELGSTELVTTKTAGPEQQ
modifications: CER105, amino acids 1-22 are signal peptide
On to B5, for which the “number of SCC152 cells” value is reported as “decreasing in numbers over time”.

B6: CER106: Chimeric engulfment receptor: Tim4 binding, Tim4 transmembrane, NFAM1 and TLR8 signaling; SEQ ID NO: 141 (protein)
chain: MSKGLLLLWLVTELWWLYLTPAASEDTIIGFLGQPVTLPCHYLSWSQSRNSMCWGKGSCPNSKCNAELLRTDGTRIISRKSTKYTLLGKVQFGEVSLTISNTNRGDSGVYCCRIEVPGWFNDVKKNVRLELRRATTTKKPTTTTRPTTTPYVTTTTPELLPTTVMTTSVLPTTTPPQTLATTAFSTAVTTCPSTTPGSFSQETTKGSAFTTESETLPASNHSQRSMMTISTDIAVLRPTGSNPGILPSTSQLTTQKTTLTTSESLQKTTKSHQINSRQTILIIACCVGFVLMVLLFLAFLLWNKKRMRGPGKDPTRKCPDPRSASSPKQHPSESVYTALQRRETEVYACIENEDGSSPTAKQSPLSQERPHRFEDDGELNLVYENLHHLFYWDVWFIYNVCLAKVKGYRSLSTSQTFYDAYISYDTKDASVTDWVINELRYHLEESRDKNVLLCLEERDWDPGLAIIDNLMQSINQSKKTVFVLTKKYAKSWNFKTAFYLALQRLMDENMDVIIFILLEPVLQHSQYLRLRQRICKSSILQWPDNPKAEGLFWQTLRNVVLTENDSRYNNMYVDSIKQY
modifications: CER106, amino acids 1-22 are signal peptide
B6: the “number of SCC152 cells” value is recorded as “decreasing in numbers over time”.
